{
  "source": "patent US11033507B2",
  "about": "“Method of synthesis of silica vesicles and use thereof” (THE UNIVERSITY OF QUEENSLAND, priority 2013, dated 2021)",
  "molecules": {"B1": {"name": "free RNase A: ribonuclease A, model therapeutical protein (protein, UniProt P61823 27-150, looked up)", "Ribonuclease pancreatic": "KETAAAKFERQHMDSSTSAASSSNYCNQMMKSRNLTKDRCKPVNTFVHESLADVQAVCSQKNVACKNGQTNCYQSYSTMSITDCRETGSSKYPNCAYKTTQANKHIIVACEGNPYVPVHFDASV"}},
  "key": {"SCC25 cells": {"system": "SCC25 cells", "assay": "MTT cell toxicity, SCC25", "type": "cell-based, human", "method": "SCC25 cells were seeded in a 96-well plate at a density of 2×10^4 cells per well and cultured in 5% CO2 at 37° C. for 24 h. Then, free RNase A, SVs, RNase A loaded SVs and corresponding denatured samples were added to the cells in DMEM medium at an RNase A dosage of 4-16 μg/ml, and the cells were incubated in 5% CO2 at 37° C. for 24 and 72 h. Subsequently, MTT reagent (10 μl/well volume from 5 mg/mI solution in PBS) was added to each well, shaken for 10 seconds and then incubated at 37° C. for 4 h. The precipitants were collected following centrifugation for the above cell toxicity experiments after the removal of the supernatant. Then DMSO (100 μl) was added to each well to dissolve the formazan crystals and the optical density (OD) was recorded at 570 nm using a microplate reader (SpectraMax M5, Bio-Strategy, Ltd). Cells incubated in the absence of SVs and RNase A were used as the control. All the experiments were performed in triplicate for each group.\nAnother series of control groups was prepared after heat and acid denaturation of RNase A, including both free RNase A and RNase A loaded SVs. In the denaturation process, 50 μl of HCl (0.01M, pH 2.0) solution was added in to 1 mg of free RNase A or 6-9 mg of SVs (loaded with 1 mg RNase A). The mixtures were incubated at 65° C. for 40 min, cooled and centrifuged. NaOH (0.01M) solution was added dropwise into the mixtures until the pH reached ˜7, indicated by precise pH paper and used as a denatured RNase A group in the present experiment.\nThe stability and activity of RNase A loaded in hydrophobic modified SV was further investigated with acid and heat treatment. In a treatment procedure, 50 μl 0.01 M HCl (pH 2) was added to ˜1 mg RNase A loaded in SV. The mixture was kept in 65° C. for 40 min, then neutralized with 0.01 M NaOH solution (pH 12) until the pH reached 7. The final RNase A concentration was then diluted to 0.5 mg/ml. Free RNase A was also treated accordingly as a control group. […]"}, "HCT116 cells": {"system": "HCT116 cells", "assay": "Cell viability after acid and heat treatment, HCT116", "type": "cell-based", "details": "24 to 72 h; samples acid and heat treated"}, "RNase A": {"target": "RNase A (Bos taurus, UniProt P61823)", "assay": "Thermal unfolding of RNase A by differential scanning calorimetry", "type": "physicochemical", "details": "10 mM PBS, RNase A 0.5 mg/ml, heating rate 60° C./h", "method": "The thermal unfolding of RNase A was measured by differential scanning calorimetry (DSC) in the range of 10−130° C. The DSC was carried out using a VP DSC microcalorimeter (MicroCal Company, USA) with a heating rate of 60° C./h. In a typical procedure, the RNase A/SV was suspended in 10 mM PBS solution with the RNase A concentration of 0.5 mg/ml. A reference suspension was also prepared using only SV the same concentration. The reference and sample suspension were injected in the corresponding cells for DSC measurements. The DSC curve of free RNase A was also obtained."}},
  "data": [
    {"molecule": "B1", "values": [
      {"measurement": "cellular toxicity / inhibition of SCC25 cells", "setting": "SCC25 cells; 24 to 72 h, samples acid and heat treated", "value": "no inhibition"},
      {"measurement": "cytotoxicity to SCC25 cells", "setting": "SCC25 cells; free protein after denaturation", "value": "no cytotoxicity"},
      {"measurement": "cytotoxicity to SCC25 cells", "setting": "SCC25 cells; free protein, not denatured", "value": "no cytotoxicity"},
      {"measurement": "cellular toxicity / inhibition of HCT116 cells", "setting": "HCT116 cells", "value": "no inhibition"},
      {"measurement": "midpoint temperature for the RNase A thermal unfolding (Tm)", "setting": "RNase A", "value": 63.6, "unit": "°C"}
    ]}
  ]
}
